In US20240218067A1 (ONCOC4, published 2024):
Numbering of substitutions follows the chain as printed.

How the values were obtained:
[1] = biological target: T1, human Siglec-10 on the cell surface (human, UniProt Q96LC7 17-697); test: flow cytometry, human PBMC, monocytes, fluorescently labeled ONC-841 (upper left quadrant)
T1 sequence (looked up): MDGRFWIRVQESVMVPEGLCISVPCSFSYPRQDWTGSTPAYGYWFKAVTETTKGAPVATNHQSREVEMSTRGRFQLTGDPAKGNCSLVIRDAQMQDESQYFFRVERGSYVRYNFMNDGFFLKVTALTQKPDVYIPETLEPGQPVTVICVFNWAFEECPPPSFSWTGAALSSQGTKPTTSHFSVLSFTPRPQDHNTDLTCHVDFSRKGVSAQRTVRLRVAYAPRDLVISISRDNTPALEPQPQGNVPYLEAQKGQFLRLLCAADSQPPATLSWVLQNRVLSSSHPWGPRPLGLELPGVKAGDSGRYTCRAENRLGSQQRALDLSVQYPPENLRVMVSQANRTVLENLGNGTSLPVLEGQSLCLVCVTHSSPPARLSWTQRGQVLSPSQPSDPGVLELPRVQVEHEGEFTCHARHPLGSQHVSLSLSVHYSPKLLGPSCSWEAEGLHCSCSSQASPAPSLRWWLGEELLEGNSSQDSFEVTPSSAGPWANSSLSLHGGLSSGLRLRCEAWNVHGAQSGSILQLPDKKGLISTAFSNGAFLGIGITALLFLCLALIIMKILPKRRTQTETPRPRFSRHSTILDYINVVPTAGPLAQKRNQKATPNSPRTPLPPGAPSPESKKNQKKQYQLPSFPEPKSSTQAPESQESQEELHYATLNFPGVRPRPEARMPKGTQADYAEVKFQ

[2] = biological target: cynomolgus Siglec-10 on the cell surface (cynomolgus); test: flow cytometry, cynomolgus PBMC, CD14hi monocytes, without excess hIgG
cynomolgus Siglec-10 on the cell surface (cynomolgus), sequence (chain, as listed by the source): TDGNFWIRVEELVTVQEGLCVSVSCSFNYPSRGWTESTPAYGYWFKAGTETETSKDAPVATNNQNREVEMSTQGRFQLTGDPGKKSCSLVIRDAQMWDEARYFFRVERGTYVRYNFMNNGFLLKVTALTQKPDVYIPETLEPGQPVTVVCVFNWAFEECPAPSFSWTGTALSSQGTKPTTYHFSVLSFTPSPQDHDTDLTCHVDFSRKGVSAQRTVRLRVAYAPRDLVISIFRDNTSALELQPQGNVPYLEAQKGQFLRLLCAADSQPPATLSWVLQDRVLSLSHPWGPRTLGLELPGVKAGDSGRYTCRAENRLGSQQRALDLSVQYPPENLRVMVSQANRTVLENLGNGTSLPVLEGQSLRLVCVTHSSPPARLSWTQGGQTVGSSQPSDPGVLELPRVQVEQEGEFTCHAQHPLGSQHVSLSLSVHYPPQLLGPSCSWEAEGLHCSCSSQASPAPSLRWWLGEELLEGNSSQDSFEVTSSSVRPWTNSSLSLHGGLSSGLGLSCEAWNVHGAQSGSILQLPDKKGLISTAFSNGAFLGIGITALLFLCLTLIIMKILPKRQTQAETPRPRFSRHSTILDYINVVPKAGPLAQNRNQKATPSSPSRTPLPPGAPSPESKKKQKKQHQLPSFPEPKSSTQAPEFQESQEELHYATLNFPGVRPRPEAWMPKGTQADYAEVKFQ

[3] = biological target: marmoset Siglec-10 on expi293 cells (marmoset) (UniProt F6WZ94); test: flow cytometry on live expi293 cells transfected with marmoset Siglec-10; FMO median 13762
marmoset Siglec-10 on expi293 cells (marmoset), sequence (F6WZ94 entry or part of it): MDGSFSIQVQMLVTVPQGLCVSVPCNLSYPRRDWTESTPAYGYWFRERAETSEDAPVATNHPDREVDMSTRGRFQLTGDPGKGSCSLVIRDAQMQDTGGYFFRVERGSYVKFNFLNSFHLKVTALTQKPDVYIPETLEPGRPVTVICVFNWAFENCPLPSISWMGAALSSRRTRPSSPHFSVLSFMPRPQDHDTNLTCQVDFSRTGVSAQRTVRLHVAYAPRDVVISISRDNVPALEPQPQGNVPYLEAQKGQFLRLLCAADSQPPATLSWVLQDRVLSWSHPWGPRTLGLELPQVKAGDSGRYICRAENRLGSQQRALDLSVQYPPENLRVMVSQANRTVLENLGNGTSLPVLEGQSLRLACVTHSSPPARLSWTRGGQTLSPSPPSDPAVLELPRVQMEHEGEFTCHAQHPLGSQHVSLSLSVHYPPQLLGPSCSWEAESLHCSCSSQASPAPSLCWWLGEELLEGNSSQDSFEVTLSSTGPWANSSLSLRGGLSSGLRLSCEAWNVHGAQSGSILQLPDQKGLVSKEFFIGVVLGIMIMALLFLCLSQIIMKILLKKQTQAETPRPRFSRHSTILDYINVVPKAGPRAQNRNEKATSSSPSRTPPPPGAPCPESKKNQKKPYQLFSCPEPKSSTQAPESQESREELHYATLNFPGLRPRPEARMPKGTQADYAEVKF

[4] = biological target: T1, human Siglec-10 on the cell surface; test: flow cytometry, human PBMC, CD14hi monocytes, without excess hIgG; FMO median 1244
[5] = biological target: rhesus Siglec-10 on expi293 cells (rhesus) (UniProt F7GW74); test: flow cytometry on live expi293 cells transfected with rhesus Siglec-10; FMO median 13039
rhesus Siglec-10 on expi293 cells (rhesus), sequence (F7GW74 entry or part of it): as the sequence (chain, as listed by the source) above, with N4S, E11K, T14M, R306H, R486G, E568D, F645S counted along it

[6] = biological target: human Siglec-10 extracellular domain recombinant protein (His or Fc tag) (human) (UniProt Q96LC7); test: ELISA, Siglec protein coated, biotinylated ONC-841, avidin-HRP
[7] = biological target: cynomolgus Siglec-10 on the cell surface (cynomolgus); test: flow cytometry on live expi293 cells transfected with cynomolgus Siglec-10; FMO median 13824
[8] = biological target: T1, human Siglec-10 on the cell surface; test: flow cytometry, human PBMC, B cells, fluorescently labeled ONC-841 (upper left quadrant)
[9] = biological target: T1, human Siglec-10 on the cell surface; test: cell-based or functional assay
[10] = biological target: human Siglec-10 extracellular domain recombinant protein (His or Fc tag) (human) (UniProt Q96LC7); test: ELISA: Siglec-10 His coated, biotinylated ONC-841, avidin-HRP
[11] = biological target: recombinant His-tagged human Siglec-10 (ACROBiosystems) (human) (UniProt Q96LC7); test: ELISA: His-tagged human Siglec-10 coated, ONC-841 detected with goat anti-human antibody
[12] = biological target: T1, human Siglec-10 on the cell surface; test: flow cytometry on live expi293 cells transfected with human Siglec-10; FMO median 14075
[13] = biological target: T2, Siglec-10 (Biacore analysis) (UniProt Q96LC7 17-546, limits assumed); test: Biacore (data from a separate experiment); data from a separate experiment
T2 sequence (looked up): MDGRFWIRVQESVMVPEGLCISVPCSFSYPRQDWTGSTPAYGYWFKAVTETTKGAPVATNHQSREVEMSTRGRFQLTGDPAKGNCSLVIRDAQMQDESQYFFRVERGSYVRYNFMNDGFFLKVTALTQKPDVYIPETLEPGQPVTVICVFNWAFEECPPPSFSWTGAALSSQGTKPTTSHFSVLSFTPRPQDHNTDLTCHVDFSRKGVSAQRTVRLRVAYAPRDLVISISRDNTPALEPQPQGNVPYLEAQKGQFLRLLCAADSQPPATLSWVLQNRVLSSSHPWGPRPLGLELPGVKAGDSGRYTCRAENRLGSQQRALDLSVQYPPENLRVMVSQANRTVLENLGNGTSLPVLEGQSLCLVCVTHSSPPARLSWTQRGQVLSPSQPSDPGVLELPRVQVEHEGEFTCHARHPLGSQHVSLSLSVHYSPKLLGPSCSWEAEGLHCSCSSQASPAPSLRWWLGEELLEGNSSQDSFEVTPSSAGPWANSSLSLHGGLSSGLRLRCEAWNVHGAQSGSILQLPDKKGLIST

[14] = biological target: T1, human Siglec-10 on the cell surface; test: flow cytometry, Jurkat cells expressing human Siglec-10
[15] = biological target: T2, Siglec-10 (Biacore analysis); test: Biacore

## ONC-841 (antibody)
[1]
  % positive cells: 79%
[2]
  Median : Comp-Alexa Fluor 488-A: 1770
[3]
  Median : Comp-APC-A: 14200
[4]
  Median : Comp-Alexa Fluor 488-A: 7250
[5]
  Median : Comp-APC-A: 13100
[6]
  Kd: 0.0225 µg/mL
[7]
  Median : Comp-APC-A: 14500
[8]
  % positive cells: 51%
[9]
  EC50, ADCC reporter activity of anti-CD20 against Raji cells: 0.5 µg/mL
  EC50, ADCC reporter activity of cetuximab against B16 cells expressing human EGFR: 0.3 µg/mL
  IC50 (so in the source), ADCC reporter activity of ONC-392 against CTLA-4 expressing CHO cells: 0.08 µg/mL
[10]
  EC50 (read off the curve): 0.02 µg/mL
[11]
  EC50 (read off the curve): 0.009 µg/mL
[12]
  Median : Comp-APC-A: 64200

B1: humanized 31F11 clone #21 (antibody, V domains shown)
VH: QVTLKESGPALVKPTQTLTLTCTFSGFSLSTSGMGLSWIRQPPGKALEWLAHIYWDDDKRYNPSLKSRLTISKDTSKNQVVLTMTNMDPVDTATYYCVRGLYGNWFFDVWGQGTTVTVSS
VL: DIVMTQSPATLSVSPGERATLSCKASQNVGTAVAWYQQKPGQAPRLLIYSASNRYTGVPARFSGSGSGTEFTLTISSLQSEDFAVYFCQQYSSYPLTFGGGTKVEIK
notes: also called hu-VHv1VLv2
[13]
  Kd: 2.17 nM
[14]
  EC50: 0.242 µg/mL
[9]
  ADCC EC50: 0.153 µg/mL
[15]
  koff: 0.000589 s⁻¹
  kon: 272000 M⁻¹ s⁻¹

B2: humanized 31F11 clone #22 (antibody, V domains shown)
VH: B1 VH with Q112A
VL: B1 VL
notes: also called hu-VHv2VLv2
[14]
  EC50: 0.237 µg/mL
[9]
  ADCC EC50: 0.266 µg/mL
[15]
  Kd: 1.23 nM
  koff: 0.000202 s⁻¹
  kon: 164000 M⁻¹ s⁻¹

B3: humanized 31F11 clone #23 (antibody, V domains shown)
VH: B1 VH with V98A
VL: B1 VL
[14]
  EC50: 0.237 µg/mL
[9]
  ADCC EC50: 0.342 µg/mL
[15]
  Kd: 1.5 nM
  koff: 0.000197 s⁻¹
  kon: 131000 M⁻¹ s⁻¹
